From publication PMC10372031, “Architecture and autoinhibitory mechanism of the plasma membrane Na^+/H^+ antiporter SOS1 in Arabidopsis” (Nature Communications, 2023)

Molecular target: the molecule itself
Assay: cryo-EM structure; single-particle cryo-EM of purified SOS1 in 20 mM HEPES pH 7.5, 150 mM NaCl, 5 mM β-ME, 0.007% GDN; two conformations (SOS1 at 2.8 Å, SOS1^expand at 3.4 Å)

B1: Arabidopsis thaliana Salt-overly-sensitive 1 (SOS1), full-length wild type (natural protein, UniProt Q9LKW9 1-1146, looked up)
chain: MTTVIDATMAYRFLEEATDSSSSSSSSKLESSPVDAVLFVGMSLVLGIASRHLLRGTRVPYTVALLVIGIALGSLEYGAKHNLGKIGHGIRIWNEIDPELLLAVFLPALLFESSFSMEVHQIKRCLGQMVLLAVPGVLISTACLGSLVKVTFPYEWDWKTSLLLGGLLSATDPVAVVALLKELGASKKLSTIIEGESLMNDGTAIVVFQLFLKMAMGQNSDWSSIIKFLLKVALGAVGIGLAFGIASVIWLKFIFNDTVIEITLTIAVSYFAYYTAQEWAGASGVLTVMTLGMFYAAFARTAFKGDSQKSLHHFWEMVAYIANTLIFILSGVVIAEGILDSDKIAYQGNSWRFLFLLYVYIQLSRVVVVGVLYPLLCRFGYGLDWKESIILVWSGLRGAVALALSLSVKQSSGNSHISKETGTLFLFFTGGIVFLTLIVNGSTTQFVLRLLRMDILPAPKKRILEYTKYEMLNKALRAFQDLGDDEELGPADWPTVESYISSLKGSEGELVHHPHNGSKIGSLDPKSLKDIRMRFLNGVQATYWEMLDEGRISEVTANILMQSVDEALDQVSTTLCDWRGLKPHVNFPNYYNFLHSKVVPRKLVTYFAVERLESACYISAAFLRAHTIARQQLYDFLGESNIGSIVINESEKEGEEAKKFLEKVRSSFPQVLRVVKTKQVTYSVLNHLLGYIENLEKVGLLEEKEIAHLHDAVQTGLKKLLRNPPIVKLPKLSDMITSHPLSVALPPAFCEPLKHSKKEPMKLRGVTLYKEGSKPTGVWLIFDGIVKWKSKILSNNHSLHPTFSHGSTLGLYEVLTGKPYLCDLITDSMVLCFFIDSEKILSLQSDSTIDDFLWQESALVLLKLLRPQIFESVAMQELRALVSTESSKLTTYVTGESIEIDCNSIGLLLEGFVKPVGIKEELISSPAALSPSNGNQSFHNSSEASGIMRVSFSQQATQYIVETRARAIIFNIGAFGADRTLHRRPSSLTPPRSSSSDQLQRSFRKEHRGLMSWPENIYAKQQQEINKTTLSLSERAMQLSIFGSMVNVYRRSVSFGGIYNNKLQDNLLYKKLPLNPAQGLVSAKSESSIVTKKQLETRKHACQLPLKGESSTRQNTMVESSDEEDEDEGIVVRIDSPSKIVFRNDL
notes: Arabidopsis thaliana SOS1 Na+/H+ antiporter, ecotype Columbia (Col-0) cDNA, 1146 residues; model holds residues 32-972, 1007-1017 and 1030-1048; Eluate was incubated with PreScission protease for 3 h before SEC; residues of the protease site may remain at the C-terminus; also called AtSOS1; SOS1-ClassII; source: HEK293F cells (Bac-to-Bac baculovirus, pEG-BacMam), purified (Streptactin beads, …)
With B1 the “stoichiometry N” value was 2.
